Measured values: US20240043883A1 (Board of Trustees of Michigan State University, priority 2021, published 2024)
Numbering of substitutions follows the chain as printed. Names may count otherwise.

B1: Cg10062: Tautomerase superfamily enzyme from Corynebacterium glutamicum, SEQ ID NO: 21; His6-tagged form SEQ ID NO: 59 (protein)
chain: PTYTCWSQRIRISREAKQRIAEAITDAHHELAHAPKYLVQVIFNEVEPDSYFIAAQSASENHIWVQATIRSGRTEKQKEELLLRLTQEIALILGIPNEEVWVYITEIPGSNMTEYGRLLMEPGEEEKWFNSLPEGLRERLTELEGSSE
modifications: Cg10062 from Corynebacterium glutamicum codon-optimized for Escherichia coli
B2: Y103A: Cg10062 variant with Y103A mutation, SEQ ID NO: 30 and 68 (protein)
chain: B1 chain with Y103A
modifications: Cg10062(Y103A) from Corynebacterium glutamicum codon-optimized for Escherichia coli
B3: H28A: Cg10062 variant with H28A mutation, SEQ ID NO: 25 and 63 (protein)
chain: B1 chain with H28A
modifications: Cg10062(H28A) from Corynebacterium glutamicum codon-optimized for Escherichia coli
B4: Cg10062(E114Q): Previously described Cg10062 variant with E114Q mutation, SEQ ID NO: 22 and 60 (protein)
chain: B1 chain with E114Q
modifications: Cg10062(E114Q) from Corynebacterium glutamicum codon-optimized for Escherichia coli
B5: R73A: Cg10062 variant with R73A mutation, SEQ ID NO: 28 and 66 (protein)
chain: B1 chain with R73A
modifications: Cg10062(R73A) from Corynebacterium glutamicum codon-optimized for Escherichia coli
B6: Y103F: Cg10062 variant with Y103F mutation, SEQ ID NO: 31 and 69 (protein)
chain: B1 chain with Y103F
modifications: Cg10062(Y103F) from Corynebacterium glutamicum codon-optimized for Escherichia coli
B7: Cg10062(E114D-Y103F): Cg10062 double variant E114D-Y103F, SEQ ID NO: 33 and 71 (protein)
chain: B1 chain with Y103F, E114D
modifications: Cg10062(E114D-Y103F) from Corynebacterium glutamicum codon-optimized for Escherichia coli
B8: R70K: Cg10062 variant with R70K mutation, SEQ ID NO: 27 and 65 (protein)
chain: B1 chain with R70K
modifications: Cg10062(R70K) from Corynebacterium glutamicum codon-optimized for Escherichia coli
B9: R70A: Cg10062 variant with R70A mutation, SEQ ID NO: 26 and 64 (protein)
chain: B1 chain with R70A
modifications: Cg10062(R70A) from Corynebacterium glutamicum codon-optimized for Escherichia coli
B10: Cg10062(E114N): Novel hydratase-only Cg10062 variant with E114N mutation, SEQ ID NO: 24 and 62 (protein)
chain: B1 chain with E114N
modifications: Cg10062(E114N) from Corynebacterium glutamicum codon-optimized for Escherichia coli
B11: E114A: Cg10062 variant with E114A mutation, SEQ ID NO: 32 and 70 (protein)
chain: B1 chain with E114A
modifications: Cg10062(E114A) from Corynebacterium glutamicum codon-optimized for Escherichia coli
B12: Cg10062(E114D): Previously described Cg10062 variant with E114D mutation, SEQ ID NO: 23 and 61 (protein)
chain: B1 chain with E114D
modifications: Cg10062(E114D) from Corynebacterium glutamicum codon-optimized for Escherichia coli
B13: Corynebacterium glutamicum Cg10062 variant E114D-Y103F, SEQ ID NO: 71 (Corynebacterium glutamicum ATCC 13032; E115D/Y104F) (protein)
chain: PTYTCWSQRIRISREAKQRIAEAITDAHHELAHAPKYLVQVIFNEVEPDSYFIAAQSASENHIWVQATIRSGRTEKQKEELLLRLTQEIALILGIPNEEVWVFITEIPGSNMTDYGRLLMEPGEEEKWFNSLPEGLRERLTELEGSSEENLYFQGLEHHHHHH
B14: Corynebacterium glutamicum Cg10062 variant E114Q, SEQ ID NO: 60 (Corynebacterium glutamicum ATCC 13032; E115Q) (protein)
chain: B13 chain with F103Y, D114Q
B15: Corynebacterium glutamicum Cg10062 variant E114D, SEQ ID NO: 61 (Corynebacterium glutamicum ATCC 13032; E115D) (protein)
chain: B13 chain with F103Y
B16: Corynebacterium glutamicum Cg10062 variant E114N, SEQ ID NO: 62 (Corynebacterium glutamicum ATCC 13032; E115N) (protein)
chain: B13 chain with F103Y, D114N
B17: Corynebacterium glutamicum Cg10062, wild-type, SEQ ID NO: 59 (Corynebacterium glutamicum ATCC 13032) (protein)
chain: B13 chain with F103Y, D114E

test system: not listed separately; experiment: Coupled enzyme assay (ADH, with and without MSAD): hydratase and hydratase/decarboxylase activity and product profile of Cg10062 and variants; assay type: biochemical; details: ACA 0.5 mM, pH 8; enzyme final concentration differs per variant (0.025-1.50 mg mL^−1), rates not directly comparable
Protocol: (§1) Steady-state kinetics were carried out using a Molecular Devices SpectraMax iD3 multi-mode microplate reader and Shimadzu UV2600 spectrophotometer. All assays were carried out in triplicate at 25° C. in 100 mM sodium phosphate pH 8.0 with a final volume of 200 μL, unless otherwise specified. The reduction of acetaldehyde by NADH-dependent alcohol dehydrogenase (ADH) was monitored by following the oxidation of NADH at 340 nm (ε=6220 M^−1 cm^−1).
(§2) All stock solutions, except ADH, required for the kinetics assays used for determining hydratase and hydratase/decarboxylase activities were prepared in 100 mM sodium phosphate pH 8.0. […] Stock solutions of ADH were prepared using deionized water, as recommended by the manufacturer. […] The final pH of each assay was 8.
(§3) The amount of enzyme used in each assay was varied in order to observe measurable activity. Thus, the rates obtained from this experiment were not used directly to compare the enzyme activity. These activities were only used for establishing the product profile of each enzyme. The ratios of MSA and acetaldehyde formed by each enzyme was determined by the coupled enzyme assay (FIG. 13), using the differences in rates in the presence and absence of MSAD (Table 10). […] All other components used for steady-state kinetics were identical to those used in the initial screening assays.

| Rate in the absence of MSAD | Rate in the presence of MSAD | Molecule |
| --- | --- | --- |
| 120 µM/min | 146 µM/min | B1 |
| 16 µM/min | 38 µM/min | B2 |
| 4.5 µM/min | 12 µM/min | B3 |
| no activity | 102 µM/min | B4 |
| no activity | no activity | B5 |
| 43 µM/min | 65 µM/min | B6 |
| no activity | 39 µM/min | B7 |
| no activity | no activity | B8 |
| no activity | no activity | B9 |
| no activity | 67 µM/min | B10 |
| 11 µM/min | 15 µM/min | B11 |
| no activity | 90 µM/min | B12 |

same assay, conditions: from Cg10062 activity in the presence and absence of MSAD; * from non-enzymatic decarboxylation of malonate semialdehyde

| Product Ratio (%) acetaldehyde | Molecule |
| --- | --- |
| 81% | B1 |
| <1* % | B4 |
| <1* % | B7 |
| <1* % | B10 |
| <1* % | B12 |

same assay, conditions: from Cg10062 activity in the presence and absence of MSAD; ACA substrate, pH 8.0, 25° C.

| Product Ratio (%) malonate semialdehyde | Molecule |
| --- | --- |
| 19% | B1 |
| >99% | B4 |
| >99% | B7 |
| >99% | B10 |
| >99% | B12 |

same assay, conditions: in words

| product of ACA hydration | Molecule |
| --- | --- |
| produces only malonic semialdehyde | B10 |

test system: not given; experiment: not given; details: background statement; cited from earlier work

| Molecule | acetaldehyde in product mixture from ACA | malonate semialdehyde in product mixture from ACA |
| --- | --- | --- |
| B1 | 75% | 25% |

same assay, conditions: previously described variants, in words; cited from earlier work

| Molecule | activity relative to the Cg10062 | product of ACA hydration |
| --- | --- | --- |
| B4 | significantly lower activity | MSA exclusively |
| B12 | significantly lower activity | MSA exclusively |

substrate: C#CC(=O)O; experiment: purified protein, by the assay type; assay type: biochemical, Corynebacterium glutamicum; details: other: ACA, 100 mM sodium phosphate pH 8.0, 25 °C
Protocol: as §1, §2, §3

| Molecule | Km | kcat | kcat/Km |
| --- | --- | --- | --- |
| B13 | 72 ± 7 µM | 0.34 ± 0.01 s⁻¹ | 4700 ± 500 M⁻¹ s⁻¹ |
| B14 | 64 ± 12 µM | 0.66 ± 0.04 s⁻¹ | 10800 ± 2100 M⁻¹ s⁻¹ |
| B15 | 557 ± 62 µM | 1.12 ± 0.05 s⁻¹ | 2000 ± 200 M⁻¹ s⁻¹ |

substrate: C#CC(=O)O; experiment: purified protein, by the assay type; details: other: ACA, 100 mM sodium phosphate pH 8.0, 25 °C; remark: another data set of the same source

| Molecule | Km | kcat | kcat/Km |
| --- | --- | --- | --- |
| B16 | 45 ± 1 µM |  |  |
| B17 | 66 ± 4 µM | 8.21 s⁻¹ | 124000 M⁻¹ s⁻¹ |
